{"source": "patent US11446371B2", "about": "“Targeting of ligand binding sites in ClfA” (THE TEXAS A&M UNIVERSITY SYSTEM, priority 2015, dated 2022)", "molecules": {"B1": {"name": "ClfAPWY (protein)", "chain": "VAADAPAAGTDITNQLTNVTVGIDSGTTVYPHQAGYVKLNYGFSVPNSAVKGDTFKITVPKELNLNGVTSTAKVPPIMAGDQVLANGVIDSDGNVIYTFTDYVNTKDDVKATLTMPAYIDPENVKKTGNVTLATGIGSTTANKTVLVDYEKYGKFYNLSIKGTIDQIDKTNNTYRQTIYVNPSGDNVIAPVLTGNLKPNTDSNALIDQQNTSIKVYKVDNAADLSESYFVNPENFEDVTNSVNITFANPNQYKVEFNTPDDQITTPYIVVVNGHIDPNSKGDLALRSTLYGANSNIIARSMSWDNEVAFNNGSGSGDGIDKPVVPEQPDEPGEIEPIPE"}, "B2": {"name": "ClfA221-559: recombinant ClfA residues 221-559 (N2N3 subdomains) from S. aureus strain Newman (protein)", "chain": "VAADAPAAGTDITNQLTNVTVGIDSGTTVYPHQAGYVKLNYGFSVPNSAVKGDTFKITVPKELNLNGVTSTAKVPPIMAGDQVLANGVIDSDGNVIYTFTDYVNTKDDVKATLTMPAYIDPENVKKTGNVTLATGIGSTTANKTVLVDYEKYGKFYNLSIKGTIDQIDKTNNTYRQTIYVNPSGDNVIAPVLTGNLKPNTDSNALIDQQNTSIKVYKVDNAADLSESYFVNPENFEDVTNSVNITFPNPNQYKVEFNTPDDQITTPYIVVVNGHIDPNSKGDLALRSTLYGYNSNIIWRSMSWDNEVAFNNGSGSGDGIDKPVVPEQPDEPGEIEPIPE"}, "B3": {"name": "ClfA370-559: recombinant form of the ClfA N3 subdomain (protein)", "chain": "EKYGKFYNLSIKGTIDQIDKTNNTYRQTIYVNPSGDNVIAPVLTGNLKPNTDSNALIDQQNTSIKVYKVDNAADLSESYFVNPENFEDVTNSVNITFPNPNQYKVEFNTPDDQITTPYIVVVNGHIDPNSKGDLALRSTLYGYNSNIIWRSMSWDNEVAFNNGSGSGDGIDKPVVPEQPDEPGEIEPIPE"}}, "key": {"immobilized Tefibazumab": {"tested_on": "immobilized Tefibazumab", "test": "SPR binding of ClfA221-559 variants to immobilized Tefibazumab", "settings": "0.1 μM ClfA221-559 variant", "description": "Surface Plasmon Resonance.\nFIG. 3A is a ribbon diagram of ClfA-N3 domain showing the positions of PWY. The Fg γ-peptide is shown as a ribbon to show the location of the Fg γ-peptide binding site. […] The amino acid substitutions in the variant proteins were made at the mAb binding site. FIG. 3C is a graph of ClfAPWY and Fg-γ P16 peptide interaction measured by ITC."}, "immobilized human Fg [1]": {"molecular_target": "T1, immobilized human Fg (Homo sapiens, UniProt P02671+P02675+P02679)", "T1 construct": "immobilized intact Fg", "T1 sequence (P02671 20-644 isoform P02671-2 limits assumed)": "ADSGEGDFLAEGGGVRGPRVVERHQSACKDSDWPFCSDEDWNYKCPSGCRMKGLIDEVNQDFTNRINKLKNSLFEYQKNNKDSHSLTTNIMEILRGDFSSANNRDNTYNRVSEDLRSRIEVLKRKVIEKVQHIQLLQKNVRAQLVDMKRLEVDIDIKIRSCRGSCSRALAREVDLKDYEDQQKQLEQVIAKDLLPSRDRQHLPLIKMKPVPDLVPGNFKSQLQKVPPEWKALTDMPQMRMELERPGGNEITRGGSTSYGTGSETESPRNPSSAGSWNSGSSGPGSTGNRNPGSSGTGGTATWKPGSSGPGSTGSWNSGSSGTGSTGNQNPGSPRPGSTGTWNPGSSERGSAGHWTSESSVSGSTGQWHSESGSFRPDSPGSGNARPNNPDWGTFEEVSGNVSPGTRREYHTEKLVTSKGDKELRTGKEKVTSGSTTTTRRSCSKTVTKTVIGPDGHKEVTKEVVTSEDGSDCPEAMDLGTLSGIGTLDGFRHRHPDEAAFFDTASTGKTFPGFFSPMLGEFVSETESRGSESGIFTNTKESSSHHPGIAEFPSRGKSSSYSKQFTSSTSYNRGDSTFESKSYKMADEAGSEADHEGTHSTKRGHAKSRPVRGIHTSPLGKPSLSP", "T1 sequence (P02675 31-491)": "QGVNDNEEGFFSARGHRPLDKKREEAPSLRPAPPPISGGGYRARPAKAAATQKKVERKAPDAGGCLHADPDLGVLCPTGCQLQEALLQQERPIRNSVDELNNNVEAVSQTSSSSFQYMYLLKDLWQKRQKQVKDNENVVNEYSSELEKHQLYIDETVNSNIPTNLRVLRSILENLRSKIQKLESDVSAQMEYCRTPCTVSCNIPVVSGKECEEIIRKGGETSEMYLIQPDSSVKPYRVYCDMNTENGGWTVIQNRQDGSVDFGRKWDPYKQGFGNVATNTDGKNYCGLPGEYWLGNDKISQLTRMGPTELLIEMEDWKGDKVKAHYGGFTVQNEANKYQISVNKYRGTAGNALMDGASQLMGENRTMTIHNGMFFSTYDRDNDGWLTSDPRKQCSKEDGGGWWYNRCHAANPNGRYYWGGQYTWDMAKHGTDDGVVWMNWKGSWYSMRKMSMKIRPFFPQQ", "T1 sequence (P02679 27-437 isoform P02679-2 limits assumed)": "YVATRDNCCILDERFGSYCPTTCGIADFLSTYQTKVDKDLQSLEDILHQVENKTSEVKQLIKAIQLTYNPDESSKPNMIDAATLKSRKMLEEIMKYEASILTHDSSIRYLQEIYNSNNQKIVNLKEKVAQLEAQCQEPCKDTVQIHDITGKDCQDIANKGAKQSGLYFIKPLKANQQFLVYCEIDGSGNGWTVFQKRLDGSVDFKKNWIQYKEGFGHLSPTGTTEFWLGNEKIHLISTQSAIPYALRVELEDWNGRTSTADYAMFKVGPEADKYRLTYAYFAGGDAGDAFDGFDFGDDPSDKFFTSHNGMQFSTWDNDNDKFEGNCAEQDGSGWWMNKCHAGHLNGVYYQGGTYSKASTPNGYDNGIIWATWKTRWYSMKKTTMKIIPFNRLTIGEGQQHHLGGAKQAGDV", "test": "SPR binding of ClfA proteins to immobilized Fg", "settings": "0.1 μM ClfA221-559 variant", "description": "(§1) Surface Plasmon Resonance. Surface plasmon resonance-based binding experiments were performed at 25° C. on a Biacore 3000 (GE Healthcare/Biacore, Uppsala, Sweden). Phosphate buffered saline (PBS-T: 8.06 mM Na2HPO4, 1.94 mM KH2PO4, 2.7 mM KCl and 137 mM NaCl, pH 7.4, and 0.005% Tween-20) was used as running buffer for immobilization and binding experiments. Flow rate of 5 μl/min was used during immobilization and a higher rate 30 or 50 μl/min for binding experiments. The fibrinogen (Fg) surface was prepared on a CM5 sensor chip via standard amine-coupling chemistry. A Fg solution (10 μl of 20 μg/ml in sodium citrate, pH5.5) was injected to an activated (4 min) flow cell. After deactivation, about 7000 resonance units (RU) of Fg were immobilized. A reference surface was prepared with activation and deactivation steps but no protein coupled. […] For GST fusion protein capturing, approximately 11000 RU of goat anti-GST antibody (GE Healthcare/Biacore) were immobilized simultaneously on two flow cells on a CM5 sensor chip. GST-tagged Fg γ-peptide (20 μg/ml in PBS-T) was captured by the antibody and created a ligand surface (about 700 RU). The other flow cell with GST captured (about 900 RU) served as a reference surface. […] All SPR responses were baseline corrected by subtracting response generated from reference surface.\n(§2) Since most of the known and putative Fg interactive sites in ClfA are located within the N3 subdomain we examined the interactions of a recombinant form of N3 (ClfA370-559) to the different forms of immobilized Fg."}, "ClfACC": {"molecular_target": "T2, ClfACC (Staphylococcus aureus, UniProt Q53653, D327C/K541C)", "T2 construct": "made in house; host or cells: E. coli Topp3", "T2 sequence (Q53653 229-545 D327C/K541C limits assumed)": "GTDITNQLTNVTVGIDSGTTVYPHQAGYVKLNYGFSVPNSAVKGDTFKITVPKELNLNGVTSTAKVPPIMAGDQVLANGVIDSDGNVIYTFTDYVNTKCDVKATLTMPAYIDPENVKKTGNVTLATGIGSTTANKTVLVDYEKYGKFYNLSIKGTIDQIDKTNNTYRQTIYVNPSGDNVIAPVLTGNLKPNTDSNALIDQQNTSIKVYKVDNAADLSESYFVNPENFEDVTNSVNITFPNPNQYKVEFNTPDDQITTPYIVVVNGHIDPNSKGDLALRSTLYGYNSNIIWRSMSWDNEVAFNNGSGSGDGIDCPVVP", "test": "ITC, synthetic C-terminal γ-chain peptide titrated into ClfACC", "assay_type": "binding, S. aureus", "settings": "peptide titrated into cell containing ClfACC"}, "Fg binding to ClfA": {"molecular_target": "Fg binding to ClfA (Staphylococcus aureus, UniProt Q53653)", "test": "Reduction of Fg binding to ClfA by synthetic Fg γ-peptide", "design": "species or system S. aureus", "settings": "even at high concentrations"}, "immobilized human Fg [2]": {"tested_on": "immobilized human Fg", "test": "SPR binding of ClfA proteins to immobilized Fg", "settings": "immobilized Fg, Fg D-fragment, GST-γ-peptide", "description": "as §1, §2"}}, "note": "“Also recorded” adds a separate entry of the source. Where a SMILES comes first, the peptide text is derived from it."}
{"molecule": "Y512A", "values": [{"measurement": "binding to immobilized Tefibazumab", "setting": "immobilized Tefibazumab", "result": "slightly reduced binding"}, {"measurement": "binding to immobilized human Fg", "setting": "immobilized human Fg [1]", "result": "reduced binding"}]}
{"molecule": "CC(C)C[C@H](NC(=O)[C@H](Cc1c[nH]cn1)NC(=O)[C@H](Cc1c[nH]cn1)NC(=O)[C@H](CCC(N)=O)NC(=O)[C@H](CCC(N)=O)NC(=O)CNC(=O)[C@H](CCC(=O)O)NC(=O)CN)C(=O)NCC(=O)NCC(=O)N[C@@H](C)C(=O)N[C@@H](CCCCN)C(=O)N[C@@H](CCC(N)=O)C(=O)N[C@@H](C)C(=O)NCC(=O)N[C@@H](CC(=O)O)C(=O)N[C@H](C(=O)O)C(C)C", "note": "[Fg γ-peptide] (H-GEGQQHHLGGAKQAGDV-OH; N-terminus and C-terminus assumed)", "values": [{"measurement": "Kd", "setting": "ClfACC", "result": 9, "unit": "µM"}, {"measurement": "maximum reduction of Fg binding to ClfA", "setting": "Fg binding to ClfA", "result": "~50", "unit": "%"}]}
{"molecule": "B1", "values": [{"measurement": "binding to immobilized Tefibazumab", "setting": "immobilized Tefibazumab", "result": "almost completely abolished; also recorded: completely lost its ability to bind"}, {"measurement": "binding to immobilized human Fg", "setting": "immobilized human Fg [1]", "result": "minimal binding"}]}
{"molecule": "B2", "values": [{"measurement": "fold difference in KD between binding to γ-peptide and to Fg or Fg D-fragment", "setting": "immobilized human Fg [2]", "result": "4-7 fold"}]}
{"molecule": "B3", "values": [{"measurement": "fold difference in KD between binding to γ-peptide and to Fg or Fg D-fragment", "setting": "immobilized human Fg [2]", "result": "about 10 fold"}]}
